Laboratory results: the supplement of paper PMC7125110
± gives the standard error. For part of these data: Fewer inactive variants are shown than the library holds.

B1: glmS ribozyme (parent)
chain: AUAAAAGCGCCAGAACUACAGAAAUGUAGUUGACGAGGAGGAGGUUUAUCGAAUUUUCGGCGGAUGCCUCCAAA

Experiments:
Details in all cases: with glucosamine-6-phosphate
glucosamine-6-phosphate [1] = variants of: B1; assay: kcat; higher = faster cleavage; RNA array
In short: (§1)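 Tiles of sequenced MiSeq chips were imaged over ~14 h at 37 °C. On them, barcoded ribozyme variants had been transcribed in situ by E. coli RNA polymerase and were tracked via a hybridised Cy3 probe while glucosamine-6-phosphate (40 μM to 10 mM) in HEPES/KCl/Mg(OAc)2 buffer flowed in. Per-tile medians, normalised to baseline and to non-cleaving reference variants, were fit to one- or two-exponential decays for kobs, and weighted Michaelis–Menten fits gave kcat and KM.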

glucosamine-6-phosphate [2] = variants of: B1; assay: KM; higher = weaker cofactor use; RNA array
In short: as §1

glucosamine-6-phosphate [3] = variants of: B1; assay: self-cleavage kobs at 640 uM GlcN6P; higher = faster cleavage; RNA array
In short: as §1

glucosamine-6-phosphate [4] = variants of: B1; assay: self-cleavage kobs at 2500 uM GlcN6P; higher = faster cleavage; RNA array
In short: as §1

glucosamine-6-phosphate [5] = variants of: B1; assay: self-cleavage kobs at 10000 uM GlcN6P; higher = faster cleavage; RNA array
In short: as §1

glucosamine-6-phosphate [6] = variants of: B1; assay: self-cleavage kobs at 40 uM GlcN6P; higher = faster cleavage; RNA array
In short: as §1

glucosamine-6-phosphate [7] = variants of: B1; assay: self-cleavage kobs at 160 uM GlcN6P; higher = faster cleavage; RNA array
In short: as §1

Variant | kcat (glucosamine-6-phosphate [1]) [s⁻¹] | KM (glucosamine-6-phosphate [2]) [mM] | self-cleavage kobs at 640 uM GlcN6P (glucosamine-6-phosphate [3]) [s⁻¹] | self-cleavage kobs at 2500 uM GlcN6P (glucosamine-6-phosphate [4]) [s⁻¹] | self-cleavage kobs at 10000 uM GlcN6P (glucosamine-6-phosphate [5]) [s⁻¹] | self-cleavage kobs at 40 uM GlcN6P (glucosamine-6-phosphate [6]) [s⁻¹] | self-cleavage kobs at 160 uM GlcN6P (glucosamine-6-phosphate [7]) [s⁻¹]
G32A G41A | 0.00039 ± 9.1e-05 | 4.74 ± 2 | 6.12e-05 ± 1.1e-05 | 0.000116 ± 1.6e-05 | 0.000279 ± 3e-05 |  | 
G32C U69C | 3.02e-05 ± 3.3e-06 |  | 3.47e-05 ± 1.7e-05 | 3.15e-05 ± 1.3e-05 | 2.58e-05 ± 1.2e-05 |  | 
G35C C70A | < 1e-05 |  | < 1e-05 |  |  | < 1e-05 | 
G35C C70G | < 1e-05 |  |  | < 1e-05 |  |  | 
U31G C67G | 0.000557 ± 2.6e-05 | 1.76 ± 0.15 | 0.00015 ± 1.7e-05 | 0.000303 ± 5.8e-05 | 0.00048 ± 4.6e-05 |  | 4.63e-05 ± 8.1e-06
A33C A53U | 0.000206 ± 3.2e-05 |  | 7.53e-05 ± 1.6e-05 | 0.000246 ± 5.8e-05 | 0.000182 ± 1.9e-05 |  | 
G32U C70U | 0.00165 ± 0.00025 | 5.27 ± 1.3 | 0.000182 ± 2.4e-05 | 0.000464 ± 6.3e-05 | 0.00111 ± 8.8e-05 |  | 7.01e-05 ± 1.6e-05
G32U C70A | 4.97e-05 ± 4.6e-06 |  | 4.67e-05 ± 1.8e-05 | 5.83e-05 ± 1.3e-05 | 4.67e-05 ± 6.5e-06 |  | 
G32A A39G | 0.00635 ± 0.0016 | 6.19 ± 2 | 0.000619 ± 9.3e-05 | 0.00165 ± 0.0003 | 0.00403 ± 0.00055 | 3.65e-05 ± 8.1e-06 | 0.000271 ± 7.2e-05
G32A A39U | 0.00242 ± 0.00045 | 6.09 ± 1.6 | 0.000213 ± 2.9e-05 | 0.000855 ± 0.0001 | 0.00144 ± 0.00017 |  | 6.05e-05 ± 1.1e-05
G32A G59A | 1.74e-05 ± 3.1e-06 |  |  |  |  |  | < 1e-05
G32A G59U | 1.15e-05 ± 1.2e-06 | 3.35 ± 1.3 |  |  |  |  | 
C34G C71G | 2.07e-05 ± 5.7e-06 |  |  |  |  |  | 
A33U U54C | 0.000118 ± 8e-06 | 2.88 ± 0.72 |  | 5.23e-05 ± 2e-05 | 9.17e-05 ± 1.1e-05 |  | < 1e-05
U31G G59A C70G | 3.81e-05 ± 8.1e-06 |  |  | 3.86e-05 ± 1.5e-05 |  |  | 
G32A U55A C68A | 3.25e-05 ± 3.5e-06 |  |  |  |  |  | 
A33U U55C | 0.000106 ± 1.2e-05 | 6.17 ± 1.3 |  | 3.12e-05 ± 5.7e-06 | 6.51e-05 ± 7.8e-06 | < 1e-05 | 
A33U U55G | 0.000103 ± 1e-05 | 1.99 ± 0.57 | 3.4e-05 ± 1.3e-05 | 5.38e-05 ± 7.7e-06 | 8.77e-05 ± 1e-05 |  | 

Variant | kcat (glucosamine-6-phosphate [1]) [s⁻¹] | KM (glucosamine-6-phosphate [2]) [mM] | self-cleavage kobs at 640 uM GlcN6P (glucosamine-6-phosphate [3]) [s⁻¹] | self-cleavage kobs at 2500 uM GlcN6P (glucosamine-6-phosphate [4]) [s⁻¹] | self-cleavage kobs at 10000 uM GlcN6P (glucosamine-6-phosphate [5]) [s⁻¹] | self-cleavage kobs at 40 uM GlcN6P (glucosamine-6-phosphate [6]) [s⁻¹] | self-cleavage kobs at 160 uM GlcN6P (glucosamine-6-phosphate [7]) [s⁻¹]
A33U G40U | 5.28e-05 ± 4e-06 |  |  |  | 1.68e-05 ± 7.9e-06 | < 1e-05 | < 1e-05
G35A G43C | < 1e-05 |  |  |  | < 1e-05 |  | < 1e-05
G32A A53C | 0.00145 ± 0.00063 |  | 0.000126 ± 1.8e-05 | 0.0004 ± 7.3e-05 | 0.000944 ± 0.00012 |  | 8.36e-05 ± 1.6e-05
U31G A39C | 0.00339 ± 0.0008 | 3.13 ± 1.1 | 0.000584 ± 0.00012 | 0.00195 ± 0.00036 | 0.00236 ± 0.00045 |  | 0.000147 ± 3.4e-05
A33U A52U | 1.29e-05 ± 2.5e-06 | 8.3 ± 3.4 |  |  |  |  | 
A33U A52G | 3.65e-05 ± 1.3e-05 |  |  |  | 1.94e-05 ± 7.9e-06 |  | 
U31G G66U | 0.000571 ± 6e-05 | 2.41 ± 0.4 | 0.000126 ± 1.5e-05 | 0.00029 ± 4.4e-05 | 0.000452 ± 8e-05 |  | 2.77e-05 ± 1e-05
A33C U54C | 0.00039 ± 4.2e-05 | 1.95 ± 0.36 | 0.0001 ± 1.7e-05 | 0.000217 ± 3.9e-05 | 0.000325 ± 9.2e-05 |  | 
G32C G41U | < 1e-05 |  |  |  |  | < 1e-05 | < 1e-05
G32U C58G | 0.00149 ± 0.00016 | 8.79 ± 1.3 | 0.000102 ± 1.7e-05 | 0.000294 ± 7.3e-05 | 0.000802 ± 9.7e-05 |  | 3.01e-05 ± 9.4e-06
G32C G37A U55A C67A C68A | 4.68e-05 ± 2.3e-05 |  | 7.47e-05 ± 3.5e-05 |  |  |  | 
A33U C71G | 1.4e-05 ± 2.4e-06 |  |  |  | 1.47e-05 ± 7.1e-06 |  | 
G32U U56G | 0.00104 ± 0.00031 | 6.41 ± 2.8 | 8.33e-05 ± 1.2e-05 | 0.000317 ± 5e-05 | 0.000633 ± 6.8e-05 |  | 5.05e-05 ± 1.1e-05
C34G C67G | 4.36e-05 ± 2.1e-05 |  |  | 4.65e-05 ± 1.9e-05 |  |  | 
G32U G51A | < 1e-05 |  |  |  |  | < 1e-05 | 
G32U U46G | 0.000316 ± 0.00012 |  | 4.52e-05 ± 1.5e-05 | 6.3e-05 ± 1.1e-05 | 0.000169 ± 2e-05 |  | 
G32U U46A | 0.000102 ± 7.4e-06 | 4.1 ± 0.67 |  | 3.94e-05 ± 1.1e-05 | 7.21e-05 ± 1.5e-05 |  | 
U31G G40C | 0.00108 ± 0.00013 | 1.28 ± 0.25 | 0.000397 ± 5.8e-05 | 0.000864 ± 0.00017 | 0.0009 ± 0.00012 | 2.49e-05 ± 8e-06 | 0.000124 ± 2e-05
